Test results from the DeepSol protein solubility set.

test: soluble on expression in E. coli; label from the status in PepcDB or PDB records

Row | Sequence | soluble on expression in E. coli
1 | MSLHGNSEMQKINQTSAMPEKTDVHWSGRFSVAPMLDWTDRHCRYFLRLLSRNTLLYTEMVTTGAIIHGKGDYLAYSEEEHPVALQLGGSDPAALAQCAKLAEARGYDEINLNVGCPSDRVQNGMFGACLMGNAQLVADCVKAMRDVVSIPVTVKTRIGIDDQDSYEFLCDFINTVSGKGECEMFIIHARKAWLSGLSPKENREIPPLDYPRVYQLKRDFPHLTMSINGGIKSLEEAKAHLQHMDGVMVGREAYQNPGILAAVDREIFGSSDTDADPVAVVRAMYPYIERELSQGTYLGHITRHMLGLFQGIPGARQWRRYLSENAHKAGADINVLEHALKLVADKREGHHHHHH | soluble
2 | MRVDLNSDLGESFGRYKLGLDEEVMKYITSANVACGWHAGDPLVMRKTVRLAKENDVQVGAHPGYPDLMGFGRRYMKLTPEEARNYILYQVGALYAFAKAEGLELQHVKPHGALYNAMVKEEDLARAVIEGILDFDKDLILVTLSNSRVADIAEEMGLKVAHEVFADRAYNPDGTLVPRGRPGAVIEDKEEIAERVISMVKDGGIRAINGEWVDLKVDTICVHGDNPKAVEITSYIRKVLEEEGVKIVPMKEFIR | soluble
3 | NTTHAYVHASPPHSVPIAGASTAAVTHQQATQLKGTDELYGLGNLPSSGPGRWEYLANPENWHPERRKLHEKLLDEARSSALTLAESLERDGCQPTLFALRGNTATGKTRIATKKIPALAAALEKTGGKGCINPDVFKSSLAKSEAGAKIFSSAQVHNESCFLADHFEDGLRSQRTGSGAIASIVVDKRLARAYEIDSYIELAKETGRKVELCDIDAPLENSLTGVLQRKPEGEDPRPPYPVVSSGFVAVRSNRMSVIDRFIADPSLGNYRLFGTAEDGKKVMVASVMGGELSVEDADLYEKITSPQSSVTGDLADKIIDNELIDRLTNNIDDPERAANTRAALEKYNGKSWSAALAAHSELI | not soluble
4 | MGSDKIHHHHHHMPNTIHQDEGRPIVNSNDHDSPAESRASGVLNLTHLRTLVAVVQEGHLTRAAERLRISQPAASHHLRSLEQQFGLPLFTRTPQGVVPTAAGLQLSEQAARLLASSLELLSTASELRGSASGRIAIGTIEDPSVHAALPSLIKWFHEHYPLIELSIESRNSSSIRQGILTGEINAGFYVSCTNEANLREYEIGQRELVVVAPQSWRERVATATWPELAKLPWVMTTTGSAHSEITAQLFRSHNITIRPALEVNTERLLRAMVSQGVGLGFTRREFAEAEQARGAFFIVPISVHRTTMHFAYARSAETDPLIQILSRGLATVLPVAERLIPSTAKPAEK | not soluble
5 | MAARPITLGIDLGTTSVKAALLRAAPDDPSGFAVLASCARAARAEAAVESAVAGPQGREQDVSRILQALHECLAALPRPQLRSVVGIGVSGQMHGVVFWKTGQGCEWTEGGITPVFEPRAVSHLVTWQDGRCSSEFLASLPQPKSHLSVATGFGCATIFWLLKYRPEFLKSYDAAGTIHDYVVAMLCGLPRPLMSDQNAASWGYFNTQSQSWNVETLRSSGFPVHLLPDIAEPGSVAGRTSHMWFEIPKGTQVGVALGDLQASVYSCMAQRTDAVLNISTSVQLAASMPSGFQPAQTPDPTAPVAYFPYFNRTYLGVAASLNGGNVLATFVHMLVQWMADLGLEVEESTVYSRMIQAAVQQRDTHLTITPTVLGERHLPDQLASVTRISSSDLSLGHVTRALCRGIVQNLHSMLPIQQLQEWGVERVMGSGSALSRNDVLKQEVQRAFPLPMSFGQDVDAAVGAALVMLRRHLNQKES | not soluble
6 | MGSSHHHHHHSSGLVPRGSHMFANDATFEIKKCDLHRLEEGPPVTTVLTREDGLKYYRMMQTVRRMELKADQLYKQKIIRGFCHLCDGQEACCVGLEAGINPTDHLITAYRAHGFTFTRGLSVREILAELTGRKGGCAKGKGGSMHMYAKNFYGGNGIVGAQVPLGAGIALACKYNGKDEVCLTLYGDGAANQGQIFEAYNMAALWKLPCIFICENNRYGMGTSVERAAASTDYYKRGDFIPGLRVDGMDILCVREATRFAAAYCRSGKGPILMELQTYRYHGHSMSDPGVSYRTREEIQEVRSKSDPIMLLKDRMVNSNLASVEELKEIDVEVRKEIEDAAQFATADPEPPLEELGYHIYSSDPPFEVRGANQWIKFKSVS | soluble
7 | MSEFDFDVVVVGAGAVGLACGYALSRRGLVVAVLEEQGRIGEGVSSRNSEVIHGGLYYPTGSLKAKLCVQGRRALYAFCDAHKVPYKKCGKLVVATSEDEIARLDTIWEQALANDVEGMERLTGAQARALEPGLNAHAALLSPESGVFASHDYMLALQGEIEAAGGAVVLSTPFEGAEPLAGGGFRVRAGGAEPTDLTCRLLVTAPGLSSQAVAGRIEGYPAEQIPKAHFGKGIYFRLSGKAPFQRLIYPPPIHGALGTHYRNDMGGQAVFGPDLEYVAAPDYSVDPAKADAFAAYIRKFWPDLPADRLVPDYAGVRPKLHGPGEPQPDFQLRGVEDHGLAGLMALFGIESPGLTSSLAIGETVAERLCGASLEHHHHHH | soluble
8 | MPAAAPGKNFDLSHWKLQLPDANTTEISSANLGLGYTSQYFYTDTDGAMTFWAPTTGGTTANSSYPRSELREMLDPSNSKVNWGWQGTHTMKLSGKTVQLPSSGKIIVAQIHGIMDDGTNAPPLVKAVFQDGQLDMQVKQNSDGTGSDVHNYFTGIKLGDLYNMEIRVTDGVAYVTMNGDTRSVDFVGKDAGWKNLKYYFKAGNYVQDNTSTGGSAIAKLYSLSVSHSNLEHHHHHH | soluble
9 | MTKVTREEVEHIANLARLQISPEETEEMANTLESILDFAKQNDSADTEGVEPTYHVLDLQNVLREDKAIKGIPQELALKNAKETEDGQFKVPTIMNEEDALEHHHHHH | not soluble
10 | MSLVTIKDVALKAGVSPSTVSRVIKGNKRISEATISKVKKVMEELNYFPNTAARTLITNQTYKIGLVLKGSEEPIRLNPFYINVLLGISETCNQHGYGTQTTVSNNMNDLMDEVYKMIKQRMVDAFILLYSKENDPIKQMLIDESMPFIVIGKPTSDIDHQFTHIDNDNILASENLTRHVIEQGVDELIFITEKGNFEVSKDRIQGFETVASQFNLDYQIIETSNEREVILNYMQNLHTRLKDPNIKQAIISLDAMLHLAILSVLYELNIEIPKDVMTATFNDSYLTEIASPPQTCIDIKPRMLGQQAGSAILNILKNKAQDVIELVIIDTELKIRKSTQREGHHHHHH | soluble
11 | MGHHHHHHSHMGSLPSRRKSLPSPSLSSSVQGQGPVTMEAERSKATAVALGSFPAGGPAELSLRLGEPLTIVSEDGDWWTVLSEVSGREYNIPSVHVAKVSHGWLYEGLSREKAEELLLLPGNPGGAFLIRESQTRRGSYSLSVRLSRPASWDRIRHYRIHCLDNGWLYISPRLTFPSLQALVDHYSELADDICCLLKEPCVLQRAGPLPGKDIPLPVTVQRTPLNWKELDSSLLFSEAATGEESLLSEGLRESLSFYISLNDEAVSLDDA | not soluble
12 | MGSDKIHHHHHHSCGTNGSKTTSTDITEKKVIVQVPQFDADSAYKYIQAQVDFGPRTPNSKGHVACGDYLAAKLAEHGAKVISQNAELPAYDGTLLKARNIIGSFKPESKKRIALFAHWDTRPWADNDPNEKNHHTPILGANDGASGVGVLLEIARQINQQQPELGIDIIFLDAEDYGAPQFYTGEHREDQWCLGAQYWARTPHVDGYNARFGILLDMVGGKDATFFKEVYSEKYAKGINKKVWKKANDAGYGRYFINEVGGQITDDHLFINRLAGIPTIDIIPNDENCELSSFGPTWHTVNDNMDAIDRSTLKAVGQTVLEVIYNEK | not soluble
13 | MFSSSALSYINGFCFSTAGYSPEFCHAVRFVLIEEGALNQDGTPKPNLGYVNDPKDKGGETKGGISKRAFPNIDIAALTLDGIVALYHRYFWKPAYCQDWPASVALYTFDAAVQHGVTNALLMLQEIAGTKADGKVGPATRNAVNSADKEYLCARYGLRRARFYARIIKKDTSQTRFIEGWHNRLVNLTNAAWELQ | soluble
14 | MTATKQTAQVTAVADGTVVTPKGFQAAGVHAGLRYSKNDLGVILCDVPASAAAVYTQSHFQAAPLKVTQASLAVEQKLQAVIVNSACANACTGEQGLKDAYEMRELCAKQFGLALHHVAVASTGVIGEYLPMEKIRAGIEKLVPGATMADAEAFQTAILTTDTVMKRACYQTTVDGKTVTVGGAAKGSGMIHPNMATMLAFITTDANVSSPVLHAALRSITDVSFNQITVDGDTSTNDMVVVMASGLAGNDELTPDHPDWENFYEALRKTCEDLAKQIAKDGEGATKLIEVRVRGAKTDEEAKKIAKQIVGSNLVKTAVYGADANWGRIIGAIGYSDAEVNPDNVDVAIGPIVMLKGSEPQPFSEEEATAYLQQETVVIEVDLHLGDGFGVAWGCDLTYDYVKINASYRT | not soluble
